Literature values as cited in patent US20220184026A1, “COMPOSITIONS OF FULVIC ACID AND CANNABINOID AND USES THEREOF” (Omni Bioceutical Innovations, Inc., priority 2019, published 2022).
Where two headings read alike, the source gives them in different places.

Tested on: chronic wounds
Set-up: key: N.S. = not statistically significant

Molecule	Results (Mustoe et al., pressure wounds (n=45), 1 and 3 μg/mL daily)	Results (Robson et al., pressure wounds (n=20), 1, 10, and 100 μg/mL daily)	Results (Robson et al., venous wounds (n=36), 2.5 μg/cm^2 three times per week)
platelet-derived growth factor BB (protein, UniProt P01127 82-190, looked up) Platelet-derived growth …: SLGSLTIAEPAMIAECKTRTEVFEISRRLIDRTNANFLVWPPCVEVQRCSGCCNNRNVQCRPTQVQLRPVQVRKIEIVRKKPIFKKATVTLEDHLACKCETVAAARPVT	N.S.	N.S.	
transforming growth factor-β2 (protein, UniProt P61812 303-414, looked up) Transforming growth factor …: ALDAAYCFRNVQDNCCLRPLYIDFKRDLGWKWIHEPKGYNANFCAGACPYLWSSDTQHSRVLSLYNTINPEASASPCCVSQDLEPLTILYYIGKTPKIEQLSNMIVKSCKCS			N.S.
